In assay [1] the target is Recombinant, membrane-anchored tissue factor (TF residues 3–244) fused to E. coli maltose-binding protein (UniProt P13726). Description: cryo-EM structure.
The next assay has as its target T1, Factor VIIa (UniProt P08709 61-212; P08709 213-466, gamma-carboxyglutamate (γ35 printed; GLA domain)).
T1 sequence (looked up) 1: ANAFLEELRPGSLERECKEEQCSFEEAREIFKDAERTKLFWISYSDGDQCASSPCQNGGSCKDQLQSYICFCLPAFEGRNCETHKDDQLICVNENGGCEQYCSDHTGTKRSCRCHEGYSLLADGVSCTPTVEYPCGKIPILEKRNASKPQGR
T1 sequence (looked up) 2: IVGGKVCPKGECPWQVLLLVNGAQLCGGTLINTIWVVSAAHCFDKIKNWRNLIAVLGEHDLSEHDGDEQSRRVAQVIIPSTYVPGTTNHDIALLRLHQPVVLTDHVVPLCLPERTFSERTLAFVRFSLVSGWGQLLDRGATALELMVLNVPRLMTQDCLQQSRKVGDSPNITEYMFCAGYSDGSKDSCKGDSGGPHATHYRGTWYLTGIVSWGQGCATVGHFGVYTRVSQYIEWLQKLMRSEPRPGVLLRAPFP
Nature of the assay: cryo-EM structure.

B1: Fab fragment of the non-inhibitory anti-TF antibody 10H10 (Fab, V domains shown)
VH: QVHLQQSGAELMKPGASVKISCKASGYTFITYWIEWVKQRPGHGLEWIGDILPGSGSTNYNENFKGKATFTADSSSNTAYMQLSSLTSEDSAVYYCARSGYYGNSGFAYWGQGTLVTVSA
VL: DIVMTQSPSSLTVTAGEKVTMSCKSSQSLLSSGNQKNYLTWYQQIPGQPPKLLIYWASTRESGVPDRFTGSGSGTDFTLTINSVQAEDLAVYYCQNDYTYPLTFGAGTKLELK
For B1, the binding result in assay [1] was “binds”.

B2: Recombinant, membrane-anchored tissue factor (TF residues 3–244) fused to E. coli maltose-binding protein (receptor, UniProt P13726 35-276, looked up)
chain: TTNTVAAYNLTWKSTNFKTILEWEPKPVNQVYTVQISTKSGDWKSKCFYTTDTECDLTDEIVKDVKQTYLARVFSYPAGNVESTGSAGEPLYENSPEFTPYLETNLGQPTIQSFEQVGTKVNVTVEDERTLVRRNNTFLSLRDVFGKDLIYTLYYWKSSSSGKKTAKTNTNEFLIDVDKGENYCFSVQAVIPSRTVNRKSTDSPVECMGQEKGEFREIFYIIGAVVFVVIILVIILAISLHK
B2: in the assay with Factor VIIa, the binding result is “binds”.
